Results: patent publication US20220389111A1 (SHANGHAI EPIMAB BIOTHERAPEUTICS, published 2022)
Numbering of substitutions follows the chain as printed. Numbers in names are those of the source. Where two headings read alike, the source gives them in different places. Each block holds one binder with its values, some of them ahead of it.

How the values were obtained:
[1] = target: T1, human CD39 on the cell membrane (CHO-K1-human CD39 stable cell line); SK-MEL-28 melanoma cells; human CD4+ T … (human, UniProt P49961 1-510); assay: FACS on CHO-K1-human CD39 cells
T1 construct: Overexpressed on CHO-K1 cells or endogenous on SK-MEL-28 / T cells; the assay field says which cells; also called huCD39; CHO-K1-huCD39
T1 sequence: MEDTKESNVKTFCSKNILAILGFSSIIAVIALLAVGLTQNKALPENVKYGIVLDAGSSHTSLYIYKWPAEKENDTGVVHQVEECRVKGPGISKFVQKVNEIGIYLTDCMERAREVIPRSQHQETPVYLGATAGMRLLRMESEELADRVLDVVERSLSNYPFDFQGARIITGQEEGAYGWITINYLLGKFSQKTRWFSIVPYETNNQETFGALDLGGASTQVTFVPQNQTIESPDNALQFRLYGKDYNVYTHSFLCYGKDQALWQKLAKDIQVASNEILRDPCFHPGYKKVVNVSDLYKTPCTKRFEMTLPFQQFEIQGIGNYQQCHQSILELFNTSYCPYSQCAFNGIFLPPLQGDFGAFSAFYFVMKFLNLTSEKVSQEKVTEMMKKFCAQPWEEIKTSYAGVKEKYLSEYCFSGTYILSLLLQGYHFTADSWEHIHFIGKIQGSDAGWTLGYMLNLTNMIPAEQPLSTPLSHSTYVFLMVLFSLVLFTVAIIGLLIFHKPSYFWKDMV
Method: (§1) The ability of the purified antibodies to bind to cell membrane human CD39, cynomolgus monkey CD39, or mouse CD39 was determined by FACS analysis. CHO-K1 cells stably transfected to overexpress human CD39, cynomolgus monkey CD39, or mouse CD39 (CHO-K1-huCD39 cells, CHO-K1-cyCD39 cells, and CHOK1-muCD39 cells) were generated for use in this assay. Briefly, SK-MEL-28 melanoma cells (ATCC) or CD39 overexpressing stable CHO cell lines were resuspended in PBS containing 2% FBS (FACS buffer) and seeded at 1-5×10⁵ cells/well into U-bottomed plates. Anti-CD39 mAbs or isotype control antibodies diluted in FACS buffer were added to the wells and incubated for 1 hour at 4° C. After washing with FACS buffer, 1:1000 diluted Fluorescence-labeled secondary antibody (Life Technologies/ThermoFisher Scientific) were added and incubated for 30 min. at 4° C. Unbound secondary mAb was removed by washing with FACS buffer three times, and the samples were then read on a FACS instrument. The data were processed by GraphPad software.

[2] = target: T2, cynomolgus monkey CD39 on CHO-K1 cells (cynomolgus monkey, UniProt A0A7N9DGH8 1-510); assay: FACS on CHO-K1-cyno CD39 cells
T2 construct: whole, on cells; also called CHO-K1-cyCD39; CHO-K1-cyno CD39
T2 sequence: T1 sequence with V47I, F94Y, V221I, I230T, I329V, K368N, A391S, F489V, T490I
Method: as §1

[3] = target: T1, human CD39 on the cell membrane …; assay: cell-based or functional assay
huCD39-ECD-His = target: T3, huCD39-ECD-His (human, UniProt P49961 38-478); assay: BLI (Octet RED96), antibody captured on AHC biosensor, antigen in solution
T3 construct: also called C-terminally hexahistidine-tagged human CD39 extracellular domain
T3 sequence: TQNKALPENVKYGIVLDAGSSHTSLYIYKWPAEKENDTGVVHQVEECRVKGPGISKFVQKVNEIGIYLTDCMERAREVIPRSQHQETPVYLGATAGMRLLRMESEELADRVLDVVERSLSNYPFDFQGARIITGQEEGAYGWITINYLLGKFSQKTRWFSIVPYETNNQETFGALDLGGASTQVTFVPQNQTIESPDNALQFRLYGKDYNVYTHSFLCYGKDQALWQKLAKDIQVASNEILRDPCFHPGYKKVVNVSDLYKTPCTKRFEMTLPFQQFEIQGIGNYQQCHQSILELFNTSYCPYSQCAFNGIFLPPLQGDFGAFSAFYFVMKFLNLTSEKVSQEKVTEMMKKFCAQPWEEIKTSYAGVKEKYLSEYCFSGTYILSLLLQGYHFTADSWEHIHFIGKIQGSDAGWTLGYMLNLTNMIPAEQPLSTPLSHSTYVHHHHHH
Method: Anti-CD39 antibodies were characterized for affinities and binding kinetics using the Octet®RED96 biolayer interferometry system (Pall FortéBio LLC). Purified anti-CD39 antibodies were captured by Anti-Mouse IgG Fc Capture (AMC) biosensors or Anti-Human IgG Fc Capture (AHC) biosensors at a concentration of 100 nM for 30 seconds. Biosensors were then dipped into running buffer (1X pH7.2 PBS, 0.05% Tween 20, 0.1% BSA) for 60 seconds to check baseline. Binding was measured by dipping sensors into purified recombinant human CD39 protein, 3-fold serial diluted from 200 nM, for 120 seconds. Dissociation was followed by dipping sensors into running buffer for 600 seconds. The association and dissociation curves were fitted to a 1:1 Langmuir binding model using Fortebio Data Analysis software (Pall FortéBio LLC).

[4] = target: T2, cynomolgus monkey CD39 on CHO-K1 cells; assay: FACS on CHO-K1-cyno CD39 cells; remark: listed apart in the source
Method: as §1
(§2) Accordingly, a G55A mutation was introduced in the CDR-H2 in HuEM0004-38-17, -18, and -19 to generate HuEM0004-38-21 (SEQ ID NO:32 (VH) and SEQ ID NO:17 (VK)), HuEM0004-38-22 (SEQ ID NO:33 (VH) and SEQ ID NO:17 (VK)), and HuEM0004-38-23 (SEQ ID NO:34 (VH) and SEQ ID NO:17 (VK)). The three humanized anti-CD39 antibodies were characterized by FACS binding assay and for cell-based inhibition of ATPase activity.

[5] = target: T1, human CD39 on the cell membrane …; assay: FACS on CHO-K1-human CD39 cells; remark: listed apart in the source
Method: as §1, §2

[6] = target: T1, human CD39 on the cell membrane …; assay: FACS on SK-MEL-28 cells (endogenous human CD39)
Method: as §1, §2

[7] = target: T1, human CD39 on the cell membrane …; assay: cell-based or functional assay; remark: listed apart in the source
[8] = target: T1, human CD39 on the cell membrane …; assay: cell-based or functional assay; remark: listed apart in the source

B2: mAb629 (antibody, V domains shown)
VH: QVQLKQSGPGLVRPSQSLSITCTVSGFSLTRFGIHWVRQSPGKGLEWLGVIWGGGSTDYDAGFISRLTITKDHSKSQVLFKINSLEADDTAMYYCATKDDDYLEAWFAHWGQGTLVTVSA
VL: NIVMTQSPKSVSMSVGERVTLSCKASENVGTYVSWYQQKSERSPRLLIYGASSRYTGVPDRFTGSGSATDFTLTISSVQAEDLADYHCGQSYSYPYTFGGGTKLEIK
notes: mouse anti-human CD39 hybridoma mAb, IgG2a, κ
EC50 [1]: 1.92 nM
IC50 (read off the curve), cell-surface huCD39 ATPase activity [3]: ~0.07 nM
EC50 [2]: 2.18 nM

B3: HuEM0004-38-22 (antibody, human IgG1, kappa, L234A L235A, V domains shown)
VH: EVQLVQSGAEVKKPGASVKVSCKASGYTFTSFWMHWVRQAPGQGLEWMGNINPRNAATKYNEKFRSRVTLTADKSISTAYMELSRLRSDDTAVYYCAREDYDEIYYAMDSWGQGTTVTVSS
VL: ENVLTQSPATLSLSPGERATLSCSASSSVIYMYWFQQKPGQSPRVLIYDTSNLASGVPARFSGSGSGTDYTLTISSLEPEDFAVYYCQQWSTYPLTFGQGTKLEIKR
notes: humanized mAb638 with G55A
Kd (huCD39-ECD-His): 2.53 nM
koff (huCD39-ECD-His): 0.000348 s⁻¹
kon (huCD39-ECD-His): 138000 M⁻¹ s⁻¹
EC50 [4]: 7.42 nM
EC50 [5]: 7.21 nM
EC50 [6]: 4.71 nM
IC50 (read off the curve), cell-surface hCD39 ATPase activity [7]: ~0.2 nM
cell-based CD39 ATPase inhibition assay (SK-MEL-28 cells), concentration of essentially complete inhibition [8]: ~1 nM

Other lines, results leading:

EC50 [1]: 12.7 nM
EC50 [2]: 10.6 nM
B1: mAb636 (antibody, V domains shown)
VH: QVQLQQPGTELVMPGASVTLSCKASGYSFISYWMHWVKQRPGQGLEWIGEIDPSDDYTNYNQNFKGKATLTVDRSSSTAYMQLNSLTSEDSAVYYCAREENGIYYYNKGYLDVWGTGTTVTVSS
VL: DIVMTQTAFSNPVTLGTSASISCRSSKSLLHSNGITYLYWYLQKPGQSPQVLIYQMSNLASGVPDRFSCSGSGTDFTLRITRVEAEDVGFYYCAQNLELPYTFGGGTKLEMK
notes: as for B2

Kd (huCD39-ECD-His): 2.55 nM
koff (huCD39-ECD-His): 0.000365 s⁻¹
kon (huCD39-ECD-His): 143000 M⁻¹ s⁻¹
EC50 [4]: 7.18 nM
EC50 [5]: 8.36 nM
EC50 [6]: 5.47 nM
IC50 (read off the curve), cell-surface hCD39 ATPase activity [7]: ~0.2 nM
cell-based CD39 ATPase inhibition assay (SK-MEL-28 cells), concentration of essentially complete inhibition [8]: ~1 nM
B4: HuEM0004-38-23 (antibody, human IgG1, kappa, L234A L235A, V domains shown)
VH: B3 VH with M48I
VL: B3 VL
notes: humanized mAb638 with G55A

Kd (huCD39-ECD-His): 2.28 nM
koff (huCD39-ECD-His): 0.000316 s⁻¹
kon (huCD39-ECD-His): 139000 M⁻¹ s⁻¹
EC50 [4]: 6.14 nM
EC50 [5]: 6.34 nM
EC50 [6]: 4.75 nM
IC50 (read off the curve), cell-surface hCD39 ATPase activity [7]: ~0.2 nM
cell-based CD39 ATPase inhibition assay (SK-MEL-28 cells), concentration of essentially complete inhibition [8]: ~1 nM
B5: HuEM0004-38-21 (antibody, human IgG1, kappa, L234A L235A, V domains shown)
VH: B3 VH with L70M
VL: B3 VL
notes: humanized mAb638 with G55A
